Molecular target: mmac_human MMACHC (UniProt Q9Y4U1)
Sequence (Q9Y4U1 whole entry): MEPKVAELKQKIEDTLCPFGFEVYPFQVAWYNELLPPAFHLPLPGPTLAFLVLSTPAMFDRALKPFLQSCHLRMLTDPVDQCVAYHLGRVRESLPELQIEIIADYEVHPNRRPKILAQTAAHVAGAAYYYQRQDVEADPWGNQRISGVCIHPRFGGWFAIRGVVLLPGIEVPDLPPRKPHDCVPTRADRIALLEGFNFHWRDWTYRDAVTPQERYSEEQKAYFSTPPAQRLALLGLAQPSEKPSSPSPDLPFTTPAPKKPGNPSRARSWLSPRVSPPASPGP

Methionine synthase (Homo sapiens), Q99707 P1173L, sequence (Q99707 whole entry P1173L): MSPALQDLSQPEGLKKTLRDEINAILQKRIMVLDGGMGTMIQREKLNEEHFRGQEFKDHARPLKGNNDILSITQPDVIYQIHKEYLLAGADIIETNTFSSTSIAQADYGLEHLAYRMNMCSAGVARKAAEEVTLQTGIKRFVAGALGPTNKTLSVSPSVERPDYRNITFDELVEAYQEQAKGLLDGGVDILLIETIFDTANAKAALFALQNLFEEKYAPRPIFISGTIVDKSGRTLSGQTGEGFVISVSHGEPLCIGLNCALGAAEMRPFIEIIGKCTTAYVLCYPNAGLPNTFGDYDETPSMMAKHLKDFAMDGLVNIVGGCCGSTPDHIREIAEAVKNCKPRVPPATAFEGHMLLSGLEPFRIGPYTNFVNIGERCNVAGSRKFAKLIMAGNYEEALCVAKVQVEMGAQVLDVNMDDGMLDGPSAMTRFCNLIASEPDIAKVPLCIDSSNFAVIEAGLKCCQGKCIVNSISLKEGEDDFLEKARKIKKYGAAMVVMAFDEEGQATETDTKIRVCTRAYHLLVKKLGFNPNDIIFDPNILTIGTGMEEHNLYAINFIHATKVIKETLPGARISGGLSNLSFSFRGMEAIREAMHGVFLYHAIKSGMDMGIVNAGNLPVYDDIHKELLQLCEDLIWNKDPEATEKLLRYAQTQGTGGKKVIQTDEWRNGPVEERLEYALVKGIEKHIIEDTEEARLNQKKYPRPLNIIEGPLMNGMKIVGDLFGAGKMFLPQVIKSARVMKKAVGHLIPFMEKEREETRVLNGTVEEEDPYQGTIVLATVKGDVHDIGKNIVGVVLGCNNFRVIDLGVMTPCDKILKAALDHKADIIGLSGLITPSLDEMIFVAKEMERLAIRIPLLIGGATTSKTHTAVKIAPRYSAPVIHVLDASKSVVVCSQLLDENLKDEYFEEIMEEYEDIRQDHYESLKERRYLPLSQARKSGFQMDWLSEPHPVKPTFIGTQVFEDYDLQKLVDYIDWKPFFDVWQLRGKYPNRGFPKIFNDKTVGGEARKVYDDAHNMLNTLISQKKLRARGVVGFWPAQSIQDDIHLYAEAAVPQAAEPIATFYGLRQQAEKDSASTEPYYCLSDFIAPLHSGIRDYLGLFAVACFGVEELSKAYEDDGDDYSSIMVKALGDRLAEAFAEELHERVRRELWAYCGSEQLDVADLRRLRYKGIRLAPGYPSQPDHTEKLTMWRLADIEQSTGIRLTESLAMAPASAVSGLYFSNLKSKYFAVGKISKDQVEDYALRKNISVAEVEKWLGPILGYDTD

effect of a mutation on the interaction: increasing interaction strength
Substance: Methionine synthase (Homo sapiens), Q99707 P1173L

Source: IntAct's records for PubMed 23825108
